Results: article PMC10502159 (2023)

How the values were obtained:
[1] = target: T1, TLR4 1-631 (Homo sapiens, UniProt O00206); test: SPR
[2] = target: RAGE 1-344 (Homo sapiens, UniProt Q15109); test: SPR
[3] = target: T1, TLR4 1-631; test: SPR (steady state)

T1 sequence (O00206 1-631): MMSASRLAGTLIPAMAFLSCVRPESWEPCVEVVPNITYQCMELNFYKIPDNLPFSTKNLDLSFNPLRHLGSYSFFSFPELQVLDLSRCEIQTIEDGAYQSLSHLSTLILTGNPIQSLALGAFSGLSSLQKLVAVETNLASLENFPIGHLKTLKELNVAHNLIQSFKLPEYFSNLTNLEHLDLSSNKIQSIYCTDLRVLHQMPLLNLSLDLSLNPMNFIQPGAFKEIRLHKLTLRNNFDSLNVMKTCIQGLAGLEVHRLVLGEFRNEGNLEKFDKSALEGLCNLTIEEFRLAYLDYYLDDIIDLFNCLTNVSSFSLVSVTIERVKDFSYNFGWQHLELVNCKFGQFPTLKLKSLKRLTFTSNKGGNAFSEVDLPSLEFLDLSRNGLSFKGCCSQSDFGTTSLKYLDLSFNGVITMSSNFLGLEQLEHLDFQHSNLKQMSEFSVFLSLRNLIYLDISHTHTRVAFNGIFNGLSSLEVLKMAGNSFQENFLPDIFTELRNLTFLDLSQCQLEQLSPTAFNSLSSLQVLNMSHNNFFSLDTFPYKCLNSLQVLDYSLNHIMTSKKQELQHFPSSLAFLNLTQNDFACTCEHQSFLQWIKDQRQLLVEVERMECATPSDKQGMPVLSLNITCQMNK
Sequence of RAGE 1-344 (Q15109 1-344): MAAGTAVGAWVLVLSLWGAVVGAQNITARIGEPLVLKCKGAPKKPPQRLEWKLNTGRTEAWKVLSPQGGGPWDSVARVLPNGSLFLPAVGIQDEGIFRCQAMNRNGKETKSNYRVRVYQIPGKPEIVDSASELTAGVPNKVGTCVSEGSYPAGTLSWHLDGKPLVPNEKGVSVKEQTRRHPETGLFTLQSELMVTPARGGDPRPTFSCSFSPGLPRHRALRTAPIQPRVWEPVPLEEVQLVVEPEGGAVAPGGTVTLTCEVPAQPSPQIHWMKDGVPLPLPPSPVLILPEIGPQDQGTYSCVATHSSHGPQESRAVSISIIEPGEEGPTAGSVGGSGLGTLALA

B1: procathepsin L (pCTS-L) 17-333 (protein)
chain: ATLTFDHSLEAQWTKWKAMHNRLYGMNEEGWRRAVWEKNMKMIELHNQEYREGKHSFTMAMNAFGDMTSEEFRQVMNGFQNRKPRKGKVFQEPLFYEAPRSVDWREKGYVTPVKNQGQCGSCWAFSATGALEGQMFRKTGRLISLSEQNLVDCSGPQGNEGCNGGLMDYAFQYVQDNGGLDSEESYPYEATEESCKYNPKYSVANDTGFVDIPKQEKALMKAVATVGPISVAIDAGHESFLFYKEGIYFEPDCSSEDMDHGVLVVGYGFESTESDNNKYWLVKNSWGEEWGMGGYVKMAKDRRNHCGIASAASYPTV
modifications: mAb20 pre-exposed
[1]
  Kd: 1.14 µM
[2]
  Kd: 0.0304 µM

B2: procathepsin L (pCTS-L) 17-333 (protein)
chain: B1 chain
modifications: control c-mAb pre-exposed
[1]
  Kd: 0.0203 µM
[2]
  Kd: 0.0031 µM

B3: procathepsin L (pCTS-L) 17-333 (protein)
chain: B1 chain
[3]
  Kd: < 0.0283 µM
